Measurements published in paper PMC4433238.
Residue numbers refer to the chain shown, from its start.

Tests used:
Assay in all cases: EMSA
[1] = molecular target: T1, SmAlkD2 (Streptococcus mutans Clarke (ATCC 25175)) (UniProt A0A0M3KL00); settings: EMSA: 100 pM 32P-DNA, 0-50 uM protein, 20 mM Tris-HCl pH 7.5, 100 mM NaCl, 5% glycerol, 2 mM DTT, 0.1 mM EDTA, 0.1 mg/mL BSA, 20 C, 30 min, 5% native gel
T1 sequence: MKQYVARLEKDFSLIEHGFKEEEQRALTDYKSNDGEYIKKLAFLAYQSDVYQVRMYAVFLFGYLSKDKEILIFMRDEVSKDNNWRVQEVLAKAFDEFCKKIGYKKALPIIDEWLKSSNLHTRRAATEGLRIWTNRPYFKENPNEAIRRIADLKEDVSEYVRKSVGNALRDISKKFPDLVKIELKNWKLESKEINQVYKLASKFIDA

[2] = molecular target: T2, BcAlkD-K29A K29A (Bacillus cereus) (UniProt Q2PAD8); settings: N13 of strand 1 = tetrahydrofuran (THF) abasic site mimetic; EMSA: 100 pM 32P-DNA, 0-50 uM protein, 20 mM Tris-HCl pH 7.5, 100 mM NaCl, 5% glycerol, 2 mM DTT, 0.1 mM EDTA, 0.1 mg/mL BSA, 20 C, 30 min; 5% native gel
T2 sequence: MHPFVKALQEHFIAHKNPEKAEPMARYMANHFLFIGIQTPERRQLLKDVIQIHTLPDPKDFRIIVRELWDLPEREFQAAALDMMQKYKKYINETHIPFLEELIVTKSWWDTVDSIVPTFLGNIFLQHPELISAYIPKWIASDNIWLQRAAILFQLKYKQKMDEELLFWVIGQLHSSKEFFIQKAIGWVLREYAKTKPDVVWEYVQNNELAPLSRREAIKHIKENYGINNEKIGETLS

BcAlkD (Bacillus cereus) = molecular target: T3, BcAlkD (Bacillus cereus) (UniProt Q2PAD8); settings: EMSA: 100 pM 32P-DNA, 0-50 uM protein, 20 mM Tris-HCl pH 7.5, 100 mM NaCl, 5% glycerol, 2 mM DTT, 0.1 mM EDTA, 0.1 mg/mL BSA, 20 C, 30 min; 5% native gel
T3 sequence: T2 sequence with A29K

GACCACTACACCNATTCCTTACAAC / GTTGTAAGGAATCGGTGTAGTGGTC [THF•C-DNA 25-mer]
Kd ([1]; N13 of strand 1 = tetrahydrofuran (THF) abasic site mimetic): 3.4 µM | binding signal (fold lower affinity than WT) [2]: > 10000

GACCACTACACCGATTCCTTACAAC (double strand) [G•C-DNA 25-mer]
Kd [1]: 67 µM | Kd (BcAlkD (Bacillus cereus)): 19 µM

GACCACTACACCGATTCCTTACAAC / GTTGTAAGGAATTGGTGTAGTGGTC [G•T-DNA 25-mer]
Kd ([1]; G13•T13 mismatch): 52 µM
